The nanobody polyreactivity screen of Harvey et al. (2022)

Assay: yeast display, Sf9 membrane polyspecificity reagent, FACS + sequencing; frameworks hold sequencing errors
How it was run: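 Synthetic nanobody libraries on Saccharomyces cerevisiae BJ5465 were galactose-induced for 36–48 hours, stained 1 hour at 4 °C with 10% biotinylated, detergent-solubilized Sf9 membrane reagent and enriched on streptavidin microbeads. FACS then separated cells into low and high (top ~1%) gates by anti-HA (expression) and streptavidin (reagent binding) fluorescence. Genes were colony-PCR amplified, MiSeq 2 × 250 sequenced and CDR-length filtered. A clone's polyreactivity label is that of its gate of origin.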

QVQLVESGGGLVQAGGSLRLSCAASGSIFRYYAMGWYRQAPGQERELVAAISRRGSSTYYADSVKGRFTISRDNAKNTVYLQLNSLKPEDTAVYYCAARSRHSGLTQPTLDYWGQGTQVTVSS
polyreactivity (PSR sort gate): high polyreactivity

QVQLVESGGGLVQAGGSLRLSCAASGSIFRYYAMGWYRRAPGKERELVAAISRRGSSTYYADSVKGRFTISRDNAKNTVYLQMNSLKPEDTAVYYCAAGDFKQYDYWGQGTQVTVSS
polyreactivity (PSR sort gate): high polyreactivity

QVQLVESGGGLVQAGGSLRLSCAASGSIFSANAMGWYRQAPGKERELVAAISRSGGRTYYADSVKGRFTISRDNAKNTVYLQMNSLKPEDTAVYYCAADKSRYSVGYDYWGQGTQVTVSS
polyreactivity (PSR sort gate): high polyreactivity

QVQLVESGGGLVQAGGSLRLSCAASGSIFSANTMGWYRQEPGKEREFVAGITTSAGRTYYADSVKGRFTISRDNAKNTVYLQMNSLKPEDTAVYYCAARVWRSYNYWGQGTQVTVSS
polyreactivity (PSR sort gate): high polyreactivity

QVQLVESGGGLVQAGGSLRLSCAASGSIFSDNVMGGYRQAPGKERELVAAIRDGDTTNYADSVKGRFTISRDNAKNTVYLQMNSLKPEDTAVYYCATRNTWYHRGYDYWGQGTQVTVSS
polyreactivity (PSR sort gate): low polyreactivity

QVQLVESGGGLVQAGGSLRLSCAASGSIFSDNVMGWYRQAPGKERELVAAIRDGDTTNYADSVKGRFTISRDNAKNTVYLQMNCLKPEDTAVYYCAAVQASSPDYSYAYLDGDRDYWGQGTQVTVSS
polyreactivity (PSR sort gate): low polyreactivity

QVQLVESGGGLVQAGGSLRLSCAASGSIFSENAMGWYRQAPGKERELVAAITGGASTNYADSVKGRFTISRDNAKNTVYLQMNSLKPEDTAVYYCAADANRTKFDYWGQGTQVTVSS
polyreactivity (PSR sort gate): low polyreactivity

QVQLVESGGGLVQAGGSLRLSCAASGSIFSFYAMGWYRQAPGKERELVAAISRSGGSTYYADSVKGRFTISRDNAKNTVYLQMNSLKPEDTAVYYCAADYYYGTYDYWGQGTQVTVSS
polyreactivity (PSR sort gate): low polyreactivity

QVQLVESGGGLVQAGGSLRLSCAASGSIFSFYAMGWYRQAPGKERELVAAISSSGGSTYYADSVKGRFTISRDNAKNTVYLKMNSLKPEDTAVYYCAARFAYGGGYWGQGTQVTVSS
polyreactivity (PSR sort gate): high polyreactivity

QVQLVESGGGLVQAGGSLRLSCAASGSIFSFYAMGWYRQAPGKESELVAAISRSGGSTYYADSVKGRFTISRDNAKNTVYLQMNSQKPEDTAVYYCAVYAFSYPRYYYWGQGTQVTVSS
polyreactivity (PSR sort gate): low polyreactivity

QVQLVESGGGLVQAGGSLRLSCAASGSIFSFYTMGWYRQAPGKERELVASSTTYADSVKGRFTISRDNAKNTVYLQMNSLKPEDTAVYYCAVDYNSLRYGPLGYWGQGTQVTVSS
polyreactivity (PSR sort gate): low polyreactivity

QVQLVESGGGLVQAGGSLRLSCAASGSIFSGNAMGWYRQAPGKERELVAAITTRSGSTYYADSVKGRFTISRDNAKNTVYLQMNSLKPEDTAVYYCAATGYRYRRIYGFDYWGQGTQVTVSS
polyreactivity (PSR sort gate): high polyreactivity

QVQLVESGGGLVQAGGSLRLSCAASGSIFSGNVIGWYRQAPGKERELVAAISGRGGSTYYADSVKGRFTISRDNAKNTVYLQMNSLKPEDTAVYYCAAVYLKTYYWGQGTQVTVSS
polyreactivity (PSR sort gate): high polyreactivity

QVQLVESGGGLVQAGGSLRLSCAASGSIFSGYAMGWYRQAPGKERELVAAINSNGGRTYYADSVKGRFTISRDNAKNTVYLQMNSLKPEDTAVYYCNAAKRGWYYDYYYWGQGTQVTVSS
polyreactivity (PSR sort gate): high polyreactivity

QVQLVESGGGLVQAGGSLRLSCAASGSIFSGYMGWYRQAPGKERELVATITSGGSTYADSVKGRFTISRDNAKNTVYLQMNSLKPEDTAVYYCAADVSFYTSKYDYWGQGTQVTVSS
polyreactivity (PSR sort gate): low polyreactivity

QVQLVESGGGLVQAGGSLRLSCAASGSIFSHYAMGWYRQAPGKERELVAAISSSGNTYYADSVKGRFTISRDNAKNTVYLQMNSLKPEDTAVYYCNAVVYSPYRYEYWGQGTQVTVSS
polyreactivity (PSR sort gate): low polyreactivity

QVQLVESGGGLVQAGGSLRLSCAASGSIFSINAMGWYRQAPGKERELVAAISWSGGSTYYADSVKGRFTISRDNAKNTVYLQMNSLKPEDTAVYYCNAEEDEYGELDYWGLGTQVTVSS
polyreactivity (PSR sort gate): low polyreactivity

QVQLVESGGGLVQAGGSLRLSCAASGSIFSIYAMGWSRQAPGTERELVATITRNSGRTYYADSVKGRFTISRDNAKNTVYLQMNSLKPEDTAVYYCAASVKIISYLVHSEFLGGELDYWGQGTQVTVSS
polyreactivity (PSR sort gate): low polyreactivity

QVQLVESGGGLVQAGGSLRLSCAASGSIFSIYAMGWYRQAPGTERELVASINSGDSTYYADSVKGRFTISRDNAKNTVYVQMNSLKPDDTAVYNCAATLVTVPLYRFDYWGQGTQVTVSS
polyreactivity (PSR sort gate): low polyreactivity

QVQLVESGGGLVQAGGSLRLSCAASGSIFSIYAMGWYRQAPRKERELVAAISSSGRTYYADSVKGRFTISRDNAKNTVYLQMNSQKPVDTAVYYCNRVREGKHYYYWGQGTQVTVSS
polyreactivity (PSR sort gate): high polyreactivity

QVQLVESGGGLVQAGGSLRLSCAASGSIFSKYVMGWYRQAPGKERELVAAISWSGTRTYYADSVKGRFTISRDNAKNTVYLQMNSLKPEDTAVYYCAARRLYAGHQYDYWGQGTQVTVSS
polyreactivity (PSR sort gate): high polyreactivity

QVQLVESGGGLVQAGGSLRLSCAASGSIFSLNAMGWYRQAPGKERELVAVINRSGTRTYYADSVKGRFTISRDNAKNTVYLQINSLKPEVTAVYYCNAEPSSGSDAQNEYWGQGTQVTVSS
polyreactivity (PSR sort gate): high polyreactivity

QVQLVESGGGLVQAGGSLRLSCAASGSIFSPNAMGWYRQATGKERELVAAISWTGVSTHYADSVKGRFTISRDNAKNTDYLHMNSLKPEDTAVYYCKYRFYRYPKYGYWGQGTQVTVSS
polyreactivity (PSR sort gate): high polyreactivity

QVQLVESGGGLVQAGGSLRLSCAASGSIFSPYAMGWYRQAPGKERELVAAITNSGGRTYYADSVKGRFTISRDNAKNTVYLQMNSLKPEDTAVYYCNADYGKHHTDYYYWGQGTQVTVSS
polyreactivity (PSR sort gate): low polyreactivity

QVQLVESGGGLVQAGGSLRLSCAASGSIFSPYAMGWYRQAPGKERELVATITWSGGSTYYADSVKGRFTISRDNAKNTVYLQMNSLKPEDTAVYYCAATRSGYTSYTDDSWGQGTQVTVSS
polyreactivity (PSR sort gate): high polyreactivity

QVQLVESGGGLVQAGGSLRLSCAASGSIFSQYAMGWYRPAPGKERELVAAISRSGGRTSYADSVKGRFTISRDNAKNTVYLQMNSLKPEDTAVYYCAARGPTNMGYWGQGTQVTVSS
polyreactivity (PSR sort gate): high polyreactivity

QVQLVESGGGLVQAGGSLRLSCAASGSIFSQYAMGWYRQAPGKEREFVAAINWSGGRTRYADSVKGRFTISRDNAKNTVYLEMKSLKPEDTAVYYCNARGYSGVSGKYGYWGQGTQVTVSS
polyreactivity (PSR sort gate): high polyreactivity

QVQLVESGGGLVQAGGSLRLSCAASGSIFSQYAMGWYRQAPGKERELVAAISGGGGSTSYADSVKGRFTISRDNAKNTVYLQMNSLKPDDTAVYYCAAYLYNRPYQLTGYYDGYGYWGQGTQVTVSS
polyreactivity (PSR sort gate): low polyreactivity

QVQLVESGGGLVQAGGSLRLSCAASGSIFSQYAMGWYRQAPGKERELVAAISRSGGRTSYADSVKGRFTISRDNAKNTVYLQMNSLKPEDTAVYYCAARGPTNMGYWGQGTQVTVSS
polyreactivity (PSR sort gate): high polyreactivity

QVQLVESGGGLVQAGGSLRLSCAASGSIFSQYVMGWYRQAPGNERELVAAIVWSSGSTYYADSVKGRFTMSRDNAKNTVYLQMNSLKPEDTAVYYCAARTKAFKPGYGYWGQGTQVTVSS
polyreactivity (PSR sort gate): low polyreactivity

QVQLVESGGGLVQAGGSLRLSCAASGSIFSRNAMAWYRQAPGKERELVAAISGSGGSTYYADSVKGRFTISRDNAKNTVYLQMNSLKPEDTAVYYCNKFGYHREYDYWGQGTQVTVSS
polyreactivity (PSR sort gate): low polyreactivity

QVQLVESGGGLVQAGGSLRLSCAASGSIFSRNAMGWYRQAPGKEREFVARISWSSTSTNYADSVKGRFTISRDNAKNTVYLQMNSLKPEDTAVYYCAADFRGDRRFDYWGQGTQVSVSS
polyreactivity (PSR sort gate): low polyreactivity

QVQLVESGGGLVQAGGSLRLSCAASGSIFSRNAMGWYRQAPGKEREFVARISWSSTSTNYAESVKGRFTISRDNAKNTVYLQMNSLKPEDSAVYYCAAHFRGDRRFDYWGQGTQVTVSS
polyreactivity (PSR sort gate): high polyreactivity

QVQLVESGGGLVQAGGSLRLSCAASGSIFSRNAMGWYRQAPGKERELVAAISWRGGSTYYADSVKGRFTISRDNAKYTVYLQMNSLKPEDTAVYYCGALSYPGKAGMGYWGQGTQVTVSS
polyreactivity (PSR sort gate): high polyreactivity

QVQLVESGGGLVQAGGSLRLSCAASGSIFSRNTMGWYRQAPGKERELVAGISSSGSRTYYADSVKGRFTISRDNPKNTVYLQMNSLKPEDTAVYYCAAEHQRSRGRRYYIGYDYWGQGTQVTVSS
polyreactivity (PSR sort gate): low polyreactivity

QVQLVESGGGLVQAGGSLRLSCAASGSIFSRYAMGRYRQAPGKERELVAAISKSGGSTYYADSVKGRFTISRDNAKNTVYLQMNSLKPEDTAVYYCNARDSPGQRRAEPYGYWGQGTQVTVSS
polyreactivity (PSR sort gate): high polyreactivity

QVQLVESGGGLVQAGGSLRLSCAASGSIFSRYAMGWYRTAPGKERELVAAINKSGGSTYYADSVKGRFTISRDNAKNTVYLQMNSLKPEDTAVYYCNAVYYWYKGDYWGQGTQVTVSS
polyreactivity (PSR sort gate): high polyreactivity

QVQLVESGGGLVQAGGSLRLSCAASGSIFSSNAMGWYRQAPGKERELVAAITRGGRTTYADSVKGRFTISRDNAKKTVYLQMNSLKPEDTAVYYCNAESYLTGWWVDYWGQGTQVTVSS
polyreactivity (PSR sort gate): low polyreactivity

QVQLVESGGGLVQAGGSLRLSCAASGSIFSSNAMGWYRQPPGKERELVAAITSGGSTYYADSVKGRFTISRDNAKNTVYLQMNSLKPEDTAVYYCAASYWGFQRMYYWGQGTQVTVSS
polyreactivity (PSR sort gate): high polyreactivity

QVQLVESGGGLVQAGGSLRLSCAASGSIFSSNTMGWYRPAPGKERELVAAITSGGGTYYADSVKGRFTISRDNAKNTVYLQMNSLKPEDTAVYYCAAQRVYKSSPSYDYWGQGTQVTVSS
polyreactivity (PSR sort gate): low polyreactivity

QVQLVESGGGLVQAGGSLRLSCAASGSIFSSYAMGWSRQAPGKERELVAAISSGDSTYYADSVKGRFTISRDNAKTTVYLQMNSLKPEDTAVYYCAAPWYAWGQGTQVTVSS
polyreactivity (PSR sort gate): low polyreactivity

QVQLVESGGGLVQAGGSLRLSCAASGSIFSSYAMGWYRQAPGKERELVAAISQSGGDTYYADSVKGRFTISRDNAKNTVYLQMNSLKPEDTAVYYCAASVWYYPMDYWGKGTQVTVSS
polyreactivity (PSR sort gate): low polyreactivity

QVQLVESGGGLVQAGGSLRLSCAASGSIFSSYAMGWYRQAPGKERELVAAISQSGGDTYYADSVKGRFTISRDNAKYTVYLQMNSLKPDDTAVYYCAASVWYFPMDYWGQGTQLTVSS
polyreactivity (PSR sort gate): low polyreactivity
